Results as given in the supplement of paper PMC11316812.
± gives the standard deviation of the averaged measurements.

Columns and labels:
[1] = system: hTERT-HMEC; assay: percentage of EdU-negative (G0-arrested) nuclei per well, 72 h; higher = more G0 arrest; settings: reference: sequence is the full UniProt precursor, the tested protein was the secreted form or ectodomain
[2] = system: MCF7; assay: as above; settings: reference: sequence is the full UniProt precursor, the tested protein was the secreted form or ectodomain
[3] = protein concentration 0.0225 µM
[4] = protein concentration 0.02275 µM
[5] = protein concentration 0.2275 µM
[6] = protein concentration 0.019635 µM
[7] = protein concentration 0.19635 µM
[8] = protein concentration 0.0208571 µM
[9] = protein concentration 0.208571 µM
[10] = protein concentration 0.0072075 µM
[11] = protein concentration 0.072075 µM
[12] = protein concentration 0.0357143 µM
[13] = protein concentration 0.357143 µM
[14] = protein concentration 0.00625 µM
[15] = protein concentration 0.0625 µM
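Also: secreted proteins added to cultured cells, EdU pulse at the end, nuclei found by Hoechst imaging, EdU status from nuclear versus surrounding ring intensity ratio, PBS as neutral control.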

MGIELLCLFFLFLGRNDHVQGGCALGGAETCEDCLLIGPQCAWCAQENFTHPSGVGERCDTPANLLAKGCQLNFIENPVSQVEILKNKPLSVGRQKNSSDIVQIAPQSLILKLRPGGAQTLQVHVRQTEDYPVDLYYLMDLSASMDDDLNTIKELGSRLSKEMSKLTSNFRLGFGSFVEKPVSPFVKTTPEEIANPCSSIPYFCLPTFGFKHILPLTNDAERFNEIVKNQKISANIDTPEGGFDAIMQAAVCKEKIGWRNDSLHLLVFVSDADSHFGMDSKLAGIVIPNDGLCHLDSKNEYSMSTVLEYPTIGQLIDKLVQNNVLLIFAVTQEQVHLYENYAKLIPGATVGLLQKDSGNILQLIISAYEELRSEVELEVLGDTEGLNLSFTAICNNGTLFQHQKKCSHMKVGDTASFSVTVNIPHCERRSRHIIIKPVGLGDALELLVSPECNCDCQKEVEVNSSKCHHGNGSFQCGVCACHPGHMGPRCECGEDMLSTDSCKEAPDHPSCSGRGDCYCGQCICHLSPYGNIYGPYCQCDNFSCVRHKGLLCGGNGDCDCGECVCRSGWTGEYCNCTTSTDSCVSEDGVLCSGRGDCVCGKCVCTNPGASGPTCERCPTCGDPCNSKRSCIECHLSAAGQAREECVDKCKLAGATISEEEDFSKDGSVSCSLQGENECLITFLITTDNEGKTIIHSINEKDCPKPPNIPMIMLGVSLAILLIGVVLLCIWKLLVSFHDRKEVAKFEAERSKAKWQTGTNPLYRGSTSTFKNVTYKHREKQKVDLSTDC
percentage of EdU-negative [1, 3]: 5.434 ± 0.051% | percentage of EdU-negative ([1]; protein concentration 0.225 µM): 6.34 ± 1.4% | percentage of EdU-negative [2, 3]: 23.6 ± 0.48% | percentage of EdU-negative ([2]; protein concentration 0.225 µM): 28 ± 1.7%

MGIGRSEGGRRGAALGVLLALGAALLAVGSASEYDYVSFQSDIGPYQSGRFYTKPPQCVDIPADLRLCHNVGYKKMVLPNLLEHETMAEVKQQASSWVPLLNKNCHAGTQVFLCSLFAPVCLDRPIYPCRWLCEAVRDSCEPVMQFFGFYWPEMLKCDKFPEGDVCIAMTPPNATEASKPQGTTVCPPCDNELKSEAIIEHLCASEFALRMKIKEVKKENGDKKIVPKKKKPLKLGPIKKKDLKKLVLYLKNGADCPCHQLDNLSHHFLIMGRKVKSQYLLTAIHKWDKKNKEFKNFMKKMKNHECPTFQSVFK [Q8N474]
percentage of EdU-negative ([1]; protein concentration 0.008 µM): 5.94 ± 0.1% | percentage of EdU-negative ([1]; protein concentration 0.08 µM): 7.36 ± 1.1% | percentage of EdU-negative ([2]; protein concentration 0.008 µM): 25.5 ± 1.6% | percentage of EdU-negative ([2]; protein concentration 0.08 µM): 26.5 ± 2.3%

MGILKLQVFLIVLSVALNHLKATPIESHQVEKRKCNTATCATQRLANFLVHSSNNFGAILSSTNVGSNTYGKRNAVEVLKREPLNYLPL
percentage of EdU-negative [1, 4]: 4.22 ± 0.57% | percentage of EdU-negative [1, 5]: 5.2 ± 0.82% | percentage of EdU-negative [2, 4]: 26.1 ± 1.4% | percentage of EdU-negative [2, 5]: 26.8 ± 4.2%

MGILSFLPVLATESDWADCKSPQPWGHMLLWTAVLFLAPVAGTPAAPPKAVLKLEPQWINVLQEDSVTLTCRGTHSPESDSIQWFHNGNLIPTHTQPSYRFKANNNDSGEYTCQTGQTSLSDPVHLTVLSEWLVLQTPHLEFQEGETIVLRCHSWKDKPLVKVTFFQNGKSKKFSRSDPNFSIPQANHSHSGDYHCTGNIGYTLYSSKPVTITVQAPSSSPMGIIVAVVTGIAVAAIVAAVVALIYCRKKRISALPGYPECREMGETLPEKPANPTNPDEADKVGAENTITYSLLMHPDALEEPDDQNRI
percentage of EdU-negative [1, 6]: 4.58 ± 0.074% | percentage of EdU-negative [1, 7]: 5.06 ± 0.42% | percentage of EdU-negative [2, 6]: 25 ± 1.1% | percentage of EdU-negative [2, 7]: 25.9 ± 1.6%

MGIQGGSVLFGLLLVLAVFCHSGHSLQCYNCPNPTADCKTAVNCSSDFDACLITKAGLQVYNKCWKFEHCNFNDVTTRLRENELTYYCCKKDLCNFNEQLENGGTSLSEKTVLLLVTPFLAAAWSLHP
percentage of EdU-negative [1, 3]: 5.4 ± 0.53% | percentage of EdU-negative ([1]; protein concentration 0.225 µM): 5.24 ± 1.1% | percentage of EdU-negative [2, 3]: 28.2 ± 1.9% | percentage of EdU-negative ([2]; protein concentration 0.225 µM): 25.8 ± 1%

MGKGDPKKPRGKMSSYAFFVQTCREEHKKKHPDASVNFSEFSKKCSERWKTMSAKEKGKFEDMAKADKARYEREMKTYIPPKGETKKKFKDPNAPKRPPSAFFLFCSEYRPKIKGEHPGLSIGDVAKKLGEMWNNTAADDKQPYEKKAAKLKEKYEKDIAAYRAKGKPDAAKKGVVKAEKSKKKKEEEEDEEDEEDEEEEEDEEDEDEEEDDDDE
percentage of EdU-negative [1, 3]: 5.16 ± 0.5% | percentage of EdU-negative ([1]; protein concentration 0.225 µM): 5.64 ± 0.066% | percentage of EdU-negative [2, 3]: 23.1 ± 4.2% | percentage of EdU-negative ([2]; protein concentration 0.225 µM): 24.5 ± 0.87%

MGKNKLLHPSLVLLLLVLLPTDASVSGKPQYMVLVPSLLHTETTEKGCVLLSYLNETVTVSASLESVRGNRSLFTDLEAENDVLHCVAFAVPKSSSNEEVMFLTVQVKGPTQEFKKRTTVMVKNEDSLVFVQTDKSIYKPGQTVKFRVVSMDENFHPLNELIPLVYIQDPKGNRIAQWQSFQLEGGLKQFSFPLSSEPFQGSYKVVVQKKSGGRTEHPFTVEEFVLPKFEVQVTVPKIITILEEEMNVSVCGLYTYGKPVPGHVTVSICRKYSDASDCHGEDSQAFCEKFSGQLNSHGCFYQQVKTKVFQLKRKEYEMKLHTEAQIQEEGTVVELTGRQSSEITRTITKLSFVKVDSHFRQGIPFFGQVRLVDGKGVPIPNKVIFIRGNEANYYSNATTDEHGLVQFSINTTNVMGTSLTVRVNYKDRSPCYGYQWVSEEHEEAHHTAYLVFSPSKSFVHLEPMSHELPCGHTQTVQAHYILNGGTLLGLKKLSFYYLIMAKGGIVRTGTHGLLVKQEDMKGHFSISIPVKSDIAPVARLLIYAVLPTGDVIGDSAKYDVENCLANKVDLSFSPSQSLPASHAHLRVTAAPQSVCALRAVDQSVLLMKPDAELSASSVYNLLPEKDLTGFPGPLNDQDNEDCINRHNVYINGITYTPVSSTNEKDMYSFLEDMGLKAFTNSKIRKPKMCPQLQQYEMHGPEGLRVGFYESDVMGRGHARLVHVEEPHTETVRKYFPETWIWDLVVVNSAGVAEVGVTVPDTITEWKAGAFCLSEDAGLGISSTASLRAFQPFFVELTMPYSVIRGEAFTLKATVLNYLPKCIRVSVQLEASPAFLAVPVEKEQAPHCICANGRQTVSWAVTPKSLGNVNFTVSAEALESQELCGTEVPSVPEHGRKDTVIKPLLVEPEGLEKETTFNSLLCPSGGEVSEELSLKLPPNVVEESARASVSVLGDILGSAMQNTQNLLQMPYGCGEQNMVLFAPNIYVLDYLNETQQLTPEIKSKAIGYLNTGYQRQLNYKHYDGSYSTFGERYGRNQGNTWLTAFVLKTFAQARAYIFIDEAHITQALIWLSQRQKDNGCFRSSGSLLNNAIKGGVEDEVTLSAYITIALLEIPLTVTHPVVRNALFCLESAWKTAQEGDHGSHVYTKALLAYAFALAGNQDKRKEVLKSLNEEAVKKDNSVHWERPQKPKAPVGHFYEPQAPSAEVEMTSYVLLAYLTAQPAPTSEDLTSATNIVKWITKQQNAQGGFSSTQDTVVALHALSKYGAATFTRTGKAAQVTIQSSGTFSSKFQVDNNNRLLLQQVSLPELPGEYSMKVTGEGCVYLQTSLKYNILPEKEEFPFALGVQTLPQTCDEPKAHTSFQISLSVSYTGSRSASNMAIVDVKMVSGFIPLKPTVKMLERSNHVSRTEVSSNHVLIYLDKVSNQTLSLFFTVLQDVPVRDLKPAIVKVYDYYETDEFAIAEYNAPCSKDLGNA
percentage of EdU-negative [1, 8]: 4.57 ± 0.3% | percentage of EdU-negative [1, 9]: 5.37 ± 0.84% | percentage of EdU-negative [2, 8]: 23 ± 0.6% | percentage of EdU-negative [2, 9]: 27.8 ± 2.3%

MGKPWLRALQLLLLLGASWARAGAPRCTYTFVLPPQKFTGAVCWSGPASTRATPEAANASELAALRMRVGRHEELLRELQRLAAADGAVAGEVRALRKESRGLSARLGQLRAQLQHEAGPGAGPGADLGAEPAAALALLGERVLNASAEAQRAAARFHQLDVKFRELAQLVTQQSSLIARLERLCPGGAGGQQQVLPPPPLVPVVPVRLVGSTSDTSRMLDPAPEPQRDQTQRQQEPMASPMPAGHPAVPTKPVGPWQDCAEARQAGHEQSGVYELRVGRHVVSVWCEQQLEGGGWTVIQRRQDGSVNFFTTWQHYKAGFGRPDGEYWLGLEPVYQLTSRGDHELLVLLEDWGGRGARAHYDGFSLEPESDHYRLRLGQYHGDAGDSLSWHNDKPFSTVDRDRDSYSGNCALYQRGGWWYHACAHSNLNGVWHHGGHYRSRYQDGVYWAEFRGGAYSLRKAAMLIRPLKL [Q8NI99]
percentage of EdU-negative [1, 10]: 4.22 ± 0.45% | percentage of EdU-negative [1, 11]: 5.15 ± 0.94% | percentage of EdU-negative [2, 10]: 23.9 ± 1.3% | percentage of EdU-negative [2, 11]: 25.7 ± 0.84%

MGKSASKQFHNEVLKAHNEYRQKHGVPPLKLCKNLNREAQQYSEALASTRILKHSPESSRGQCGENLAWASYDQTGKEVADRWYSEIKNYNFQQPGFTSGTGHFTAMVWKNTKKMGVGKASASDGSSFVVARYFPAGNVVNEGFFEENVLPPKK [Q9H4G4]
percentage of EdU-negative [1, 12]: 4.55 ± 0.31% | percentage of EdU-negative [1, 13]: 7.6 ± 0.95% | percentage of EdU-negative [2, 12]: 25.6 ± 0.71% | percentage of EdU-negative [2, 13]: 24.5 ± 0.79%

MGKSESQMDITDINTPKPKKKQRWTPLEISLSVLVLLLTIIAVTMIALYATYDDGICKSSDCIKSAARLIQNMDATTEPCTDFFKYACGGWLKRNVIPETSSRYGNFDILRDELEVVLKDVLQEPKTEDIVAVQKAKALYRSCINESAIDSRGGEPLLKLLPDIYGWPVATENWEQKYGASWTAEKAIAQLNSKYGKKVLINLFVGTDDKNSVNHVIHIDQPRLGLPSRDYYECTGIYKEACTAYVDFMISVARLIRQEERLPIDENQLALEMNKVMELEKEIANATAKPEDRNDPMLLYNKMTLAQIQNNFSLEINGKPFSWLNFTNEIMSTVNISITNEEDVVVYAPEYLTKLKPILTKYSARDLQNLMSWRFIMDLVSSLSRTYKESRNAFRKALYGTTSETATWRRCANYVNGNMENAVGRLYVEAAFAGESKHVVEDLIAQIREVFIQTLDDLTWMDAETKKRAEEKALAIKERIGYPDDIVSNDNKLNNEYLELNYKEDEYFENIIQNLKFSQSKQLKKLREKVDKDEWISGAAVVNAFYSSGRNQIVFPAGILQPPFFSAQQSNSLNYGGIGMVIGHEITHGFDDNGRNFNKDGDLVDWWTQQSASNFKEQSQCMVYQYGNFSWDLAGGQHLNGINTLGENIADNGGLGQAYRAYQNYIKKNGEEKLLPGLDLNHKQLFFLNFAQVWCGTYRPEYAVNSIKTDVHSPGNFRIIGTLQNSAEFSEAFHCRKNSYMNPEKKCRVW
percentage of EdU-negative [1, 14]: 4.08 ± 0.18% | percentage of EdU-negative [1, 15]: 5.51 ± 0.24% | percentage of EdU-negative [2, 14]: 25 ± 1.8% | percentage of EdU-negative [2, 15]: 27.41 ± 0.064%

MGLEKPQSKLEGGMHPQLIPSVIAVVFILLLSVCFIASCLVTHHNFSRCKRGTGVHKLEHHAKLKCIKEKSELKSAEGSTWNCCPIDWRAFQSNCYFPLTDNKTWAESERNCSGMGAHLMTISTEAEQNFIIQFLDRRLSYFLGLRDENAKGQWRWVDQTPFNPRRVFWHKNEPDNSQGENCVVLVYNQDKWAWNDVPCNFEASRICKIPGTTLN [Q8WXI8]
percentage of EdU-negative [1, 3]: 6.12 ± 0.23% | percentage of EdU-negative ([1]; protein concentration 0.225 µM): 6.07 ± 0.51% | percentage of EdU-negative [2, 3]: 23.5 ± 0.48% | percentage of EdU-negative ([2]; protein concentration 0.225 µM): 25.2 ± 0.46%
